± gives the standard deviation of the averaged measurements.
How the values were obtained:
[1] = tested on: MCF7; assay: percentage of EdU-negative (G0-arrested) nuclei per well, 72 h; higher = more G0 arrest; details: reference: sequence is the full UniProt precursor, the tested protein was the secreted form or ectodomain
[2] = tested on: hTERT-HMEC; assay: as above; details: reference: sequence is the full UniProt precursor, the tested protein was the secreted form or ectodomain
[3] = protein concentration 0.0225 µM
[4] = protein concentration 0.03125 µM
[5] = protein concentration 0.3125 µM
[6] = protein concentration 0.0065 µM
[7] = protein concentration 0.0125 µM
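Also: secreted proteins added to cultured cells, EdU pulse at the end, nuclei found by Hoechst imaging, EdU status from nuclear versus surrounding ring intensity ratio, PBS as neutral control.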

Sequence | percentage of EdU-negative [1, 3] [%] | percentage of EdU-negative ([1]; protein concentration 0.225 µM) [%] | percentage of EdU-negative [2, 3] [%] | percentage of EdU-negative ([2]; protein concentration 0.225 µM) [%] | other results
MVFLPLKWSLATMSFLLSSLLALLTVSTPSWCQSTEASPKRSDGTPFPWNKIRLPEYVIPVHYDLLIHANLTTLTFWGTTKVEITASQPTSTIILHSHHLQISRATLRKGAGERLSEEPLQVLEHPRQEQIALLAPEPLLVGLPYTVVIHYAGNLSETFHGFYKSTYRTKEGELRILASTQFEPTAARMAFPCFDEPAFKASFSIKIRREPRHLAISNMPLVKSVTVAEGLIEDHFDVTVKMSTYLVAFIISDFESVSKITKSGVKVSVYAVPDKINQADYALDAAVTLLEFYEDYFSIPYPLPKQDLAAIPDFQSGAMENWGLTTYRESALLFDAEKSSASSKLGITMTVAHELAHQWFGNLVTMEWWNDLWLNEGFAKFMEFVSVSVTHPELKVGDYFFGKCFDAMEVDALNSSHPVSTPVENPAQIREMFDDVSYDKGACILNMLREYLSADAFKSGIVQYLQKHSYKNTKNEDLWDSMASICPTDGVKGMDGFCSRSQHSSSSSHWHQEGVDVKTMMNTWTLQKGFPLITITVRGRNVHMKQEHYMKGSDGAPDTGYLWHVPLTFITSKSDMVHRFLLKTKTDVLILPEEVEWIKFNVGMNGYYIVHYEDDGWDSLTGLLKGTHTAVSSNDRASLINNAFQLVSIGKLSIEKALDLSLYLKHETEIMPVFQGLNELIPMYKLMEKRDMNEVETQFKAFLIRLLRDLIDKQTWTDEGSVSERMLRSQLLLLACVHNYQPCVQRAEGYFRKWKESNGNLSLPVDVTLAVFAVGAQSTEGWDFLYSKYQFSLSSTEKSQIEFALCRTQNKEKLQWLLDESFKGDKIKTQEFPQILTLIGRNPVGYPLAWQFLRKNWNKLVQKFELGSSSIAHMVMGTTNQFSTRTRLEEVKGFFSSLKENGSQLRCVQQTIETIEENIGWMDKNFDKIRVWLQSEKLERM [Q9NZ08] | 28.5 ± 2.6 | 25.9 ± 1.9 | 5.43 ± 0.72 | 9.42 ± 1.9 | 
MVGAMWKVIVSLVLLMPGPCDGLFRSLYRSVSMPPKGDSGQPLFLTPYIEAGKIQKGRELSLVGPFPGLNMKSYAGFLTVNKTYNSNLFFWFFPAQIQPEDAPVVLWLQGGPGGSSMFGLFVEHGPYVVTSNMTLRDRDFPWTTTLSMLYIDNPVGTGFSFTDDTHGYAVNEDDVARDLYSALIQFFQIFPEYKNNDFYVTGESYAGKYVPAIAHLIHSLNPVREVKINLNGIAIGDGYSDPESIIGGYAEFLYQIGLLDEKQKKYFQKQCHECIEHIRKQNWFEAFEILDKLLDGDLTSDPSYFQNVTGCSNYYNFLRCTEPEDQLYYVKFLSLPEVRQAIHVGNQTFNDGTIVEKYLREDTVQSVKPWLTEIMNNYKVLIYNGQLDIIVAAALTERSLMGMDWKGSQEYKKAEKKVWKIFKSDSEVAGYIRQAGDFHQVIIRGGGHILPYDQPLRAFDMINRFIYGKGWDPYVG [Q9H3G5] |  |  |  |  | percentage of EdU-negative ([1]; protein concentration 0.014 µM): 26.1 ± 4.2%; percentage of EdU-negative ([1]; protein concentration 0.14 µM): 29.1 ± 0.47%; percentage of EdU-negative ([2]; protein concentration 0.014 µM): 5.19 ± 0.19%; percentage of EdU-negative ([2]; protein concentration 0.14 µM): 6.64 ± 0.14%
MVGKLKQNLLLACLVISSVTVFYLGQHAMECHHRIEERSQPVKLESTRTTVRTGLDLKANKTFAYHKDMPLIFIGGVPRSGTTLMRAMLDAHPDIRCGEETRVIPRILALKQMWSRSSKEKIRLDEAGVTDEVLDSAMQAFLLEIIVKHGEPAPYLCNKDPFALKSLTYLSRLFPNAKFLLMVRDGRASVHSMISRKVTIAGFDLNSYRDCLTKWNRAIETMYNQCMEVGYKKCMLVHYEQLVLHPERWMRTLLKFLQIPWNHSVLHHEEMIGKAGGVSLSKVERSTDQVIKPVNVGALSKWVGKIPPDVLQDMAVIAPMLAKLGYDPYANPPNYGKPDPKIIENTRRVYKGEFQLPDFLKEKPQTEQVE | 26.5 ± 0.46 | 25.4 ± 1.6 | 4.95 ± 1.4 | 7.95 ± 0.61 | 
MVGKMWPVLWTLCAVRVTVDAISVETPQDVLRASQGKSVTLPCTYHTSTSSREGLIQWDKLLLTHTERVVIWPFSNKNYIHGELYKNRVSISNNAEQSDASITIDQLTMADNGTYECSVSLMSDLEGNTKSRVRLLVLVPPSKPECGIEGETIIGNNIQLTCQSKEGSPTPQYSWKRYNILNQEQPLAQPASGQPVSLKNISTDTSGYYICTSSNEEGTQFCNITVAVRSPSMNVALYVGIAVGVVAALIIIGIIIYCCCCRGKDDNTEDKEDARPNREAYEEPPEQLRELSREREEEDDYRQEEQRSTGRESPDHLDQ | 26.33 ± 0.14 | 28.18 ± 0.27 | 4.72 ± 0.17 | 5.86 ± 0.41 | 
MVGPAPRRRLRPLAALALVLALAPGLPTARAGQTPRPAERGPPVRLFTEEELARYGGEEEDQPIYLAVKGVVFDVTSGKEFYGRGAPYNALTGKDSTRGVAKMSLDPADLTHDTTGLTAKELEALDEVFTKVYKAKYPIVGYTARRILNEDGSPNLDFKPEDQPHFDIKDEF [Q9UMX5] |  |  |  |  | percentage of EdU-negative [1, 4]: 22.8 ± 0.65%; percentage of EdU-negative [1, 5]: 23.5 ± 1.4%; percentage of EdU-negative [2, 4]: 4.98 ± 0.59%; percentage of EdU-negative [2, 5]: 6.64 ± 2.3%
MVGTKAWVFSFLVLEVTSVLGRQTMLTQSVRRVQPGKKNPSIFAKPADTLESPGEWTTWFNIDYPGGKGDYERLDAIRFYYGDRVCARPLRLEARTTDWTPAGSTGQVVHGSPREGFWCLNREQRPGQNCSNYTVRFLCPPGSLRRDTERIWSPWSPWSKCSAACGQTGVQTRTRICLAEMVSLCSEASEEGQHCMGQDCTACDLTCPMGQVNADCDACMCQDFMLHGAVSLPGGAPASGAAIYLLTKTPKLLTQTDSDGRFRIPGLCPDGKSILKITKVKFAPIVLTMPKTSLKAATIKAEFVRAETPYMVMNPETKARRAGQSVSLCCKATGKPRPDKYFWYHNDTLLDPSLYKHESKLVLRKLQQHQAGEYFCKAQSDAGAVKSKVAQLIVIASDETPCNPVPESYLIRLPHDCFQNATNSFYYDVGRCPVKTCAGQQDNGIRCRDAVQNCCGISKTEEREIQCSGYTLPTKVAKECSCQRCTETRSIVRGRVSAADNGEPMRFGHVYMGNSRVSMTGYKGTFTLHVPQDTERLVLTFVDRLQKFVNTTKVLPFNKKGSAVFHEIKMLRRKKPITLEAMETNIIPLGEVVGEDPMAELEIPSRSFYRQNGEPYIGKVKASVTFLDPRNISTATAAQTDLNFINDEGDTFPLRTYGMFSVDFRDEVTSEPLNAGKVKVHLDSTQVKMPEHISTVKLWSLNPDTGLWEEEGDFKFENQRRNKREDRTFLVGNLEIRERRLFNLDVPESRRCFVKVRAYRSERFLPSEQIQGVVISVINLEPRTGFLSNPRAWGRFDSVITGPNGACVPAFCDDQSPDAYSAYVLASLAGEELQAVESSPKFNPNAIGVPQPYLNKLNYRRTDHEDPRVKKTAFQISMAKPRPNSAEESNGPIYAFENLRACEEAPPSAAHFRFYQIEGDRYDYNTVPFNEDDPMSWTEDYLAWWPKPMEFRACYIKVKIVGPLEVNVRSRNMGGTHRQTVGKLYGIRDVRSTRDRDQPNVSAACLEFKCSGMLYDQDRVDRTLVKVIPQGSCRRASVNPMLHEYLVNHLPLAVNNDTSEYTMLAPLDPLGHNYGIYTVTDQDPRTAKEIALGRCFDGTSDGSSRIMKSNVGVALTFNCVERQVGRQSAFQYLQSTPAQSPAAGTVQGRVPSRRQQRASRGGQRQGGVVASLRFPRVAQQPLIN |  |  |  |  | percentage of EdU-negative [1, 6]: 25.3 ± 0.34%; percentage of EdU-negative ([1]; protein concentration 0.065 µM): 25.9 ± 2%; percentage of EdU-negative [2, 6]: 4.85 ± 0.48%; percentage of EdU-negative ([2]; protein concentration 0.065 µM): 4.77 ± 1%
MVKQIESKTAFQEALDAAGDKLVVVDFSATWCGPCKMIKPFFHSLSEKYSNVIFLEVDVDDCQDVASECEVKCMPTFQFFKKGQKVGEFSGANKEKLEATINELV |  |  |  |  | percentage of EdU-negative [1, 4]: 25.2 ± 1.2%; percentage of EdU-negative [1, 5]: 23.8 ± 1.9%; percentage of EdU-negative [2, 4]: 4.86 ± 0.3%; percentage of EdU-negative [2, 5]: 4.9 ± 0.23%
MVLAAPLLLGFLLLALELRPRGEAAEGPAAAAAAAAAAAAAGVGGERSSRPAPSVAPEPDGCPVCVWRQHSRELRLESIKSQILSKLRLKEAPNISREVVKQLLPKAPPLQQILDLHDFQGDALQPEDFLEEDEYHATTETVISMAQETDPAVQTDGSPLCCHFHFSPKVMFTKVLKAQLWVYLRPVPRPATVYLQILRLKPLTGEGTAGGGGGGRRHIRIRSLKIELHSRSGHWQSIDFKQVLHSWFRQPQSNWGIEINAFDPSGTDLAVTSLGPGAEGLHPFMELRVLENTKRSRRNLGLDCDEHSSESRCCRYPLTVDFEAFGWDWIIAPKRYKANYCSGQCEYMFMQKYPHTHLVQQANPRGSAGPCCTPTKMSPINMLYFNDKQQIIYGKIPGMVVDRCGCS |  |  |  |  | percentage of EdU-negative [1, 4]: 24.2 ± 2.7%; percentage of EdU-negative [1, 5]: 26.2 ± 3.2%; percentage of EdU-negative [2, 4]: 4.52 ± 0.24%; percentage of EdU-negative [2, 5]: 5.2 ± 0.9%
MVLAQGLLSMALLALCWERSLAGAEETIPLQTLRCYNDYTSHITCRWADTQDAQRLVNVTLIRRVNEDLLEPVSCDLSDDMPWSACPHPRCVPRRCVIPCQSFVVTDVDYFSFQPDRPLGTRLTVTLTQHVQPPEPRDLQISTDQDHFLLTWSVALGSPQSHWLSPGDLEFEVVYKRLQDSWEDAAILLSNTSQATLGPEHLMPSSTYVARVRTRLAPGSRLSGRPSKWSPEVCWDSQPGDEAQPQNLECFFDGAAVLSCSWEVRKEVASSVSFGLFYKPSPDAGEEECSPVLREGLGSLHTRHHCQIPVPDPATHGQYIVSVQPRRAEKHIKSSVNIQMAPPSLNVTKDGDSYSLRWETMKMRYEHIDHTFEIQYRKDTATWKDSKTETLQNAHSMALPALEPSTRYWARVRVRTSRTGYNGIWSEWSEARSWDTESVLPMWVLALIVIFLTIAVLLALRFCGIYGYRLRRKWEEKIPNPSKSHLFQNGSAELWPPGSMSAFTSGSPPHQGPWGSRFPELEGVFPVGFGDSEVSPLTIEDPKHVCDPPSGPDTTPAASDLPTEQPPSPQPGPPAASHTPEKQASSFDFNGPYLGPPHSRSLPDILGQPEPPQEGGSQKSPPPGSLEYLCLPAGGQVQLVPLAQAMGPGQAVEVERRPSQGAAGSPSLESGGGPAPPALGPRVGGQDQKDSPVAIPMSSGDTEDPGVASGYVSSADLVFTPNSGASSVSLVPSLGLPSDQTPSLCPGLASGPPGAPGPVKSGFEGYVELPPIEGRSPRSPRNNPVPPEAKSPVLNPGERPADVSPTSPQPEGLLVLQQVGDYCFLPGLGPGPLSLRSKPSSPGPGPEIKNLDQAFQVKKPPGQAVPQVPVIQLFKALKQQDYLSLPPWEVNKPGEVC | 23.9 ± 0.89 | 26.4 ± 2.5 | 4.92 ± 0.4 | 8.11 ± 1.6 | 
MVLCFPLLLLLLVLWGPVCPLHAWPKRLTKAHWFEIQHIQPSPLQCNRAMSGINNYTQHCKHQNTFLHDSFQNVAAVCDLLSIVCKNRRHNCHQSSKPVNMTDCRLTSGKYPQCRYSAAAQYKFFIVACDPPQKSDPPYKLVPVHLDSIL | 25.2 ± 2.5 | 25 ± 4.7 | 4.8 ± 0.73 | 7.49 ± 1.4 | 
MVLCWLLLLVMALPPGTTGVKDCVFCELTDSMQCPGTYMHCGDDEDCFTGHGVAPGTGPVINKGCLRATSCGLEEPVSYRGVTYSLTTNCCTGRLCNRAPSSQTVGATTSLALGLGMLLPPRLL [Q8TDM5] | 27.6 ± 0.57 | 25.47 ± 0.088 | 4.81 ± 0.12 | 5.43 ± 0.73 | 
MVLLLLVAIPLLVHSSRGPAHYEMLGRCRMVCDPHGPRGPGPDGAPASVPPFPPGAKGEVGRRGKAGLRGPPGPPGPRGPPGEPGRPGPPGPPGPGPGGVAPAAGYVPRIAFYAGLRRPHEGYEVLRFDDVVTNVGNAYEAASGKFTCPMPGVYFFAYHVLMRGGDGTSMWADLMKNGQVRASAIAQDADQNYDYASNSVILHLDVGDEVFIKLDGGKVHGGNTNKYSTFSGFIIYPD [Q86Z23] |  |  |  |  | percentage of EdU-negative [1, 7]: 23.6 ± 0.38%; percentage of EdU-negative ([1]; protein concentration 0.125 µM): 27.2 ± 2.1%; percentage of EdU-negative [2, 7]: 4.79 ± 0.17%; percentage of EdU-negative ([2]; protein concentration 0.125 µM): 6.46 ± 0.13%
